T1: FcγRIIb extracellular domain with C-terminal His tag (human, UniProt P31994 43-217)
T1 construct: extracellular domain; Soluble receptor expressed in FreeStyle293 cells, used as analyte in Biacore; also called FcgRIIb; 2b; not shown: His tag at the C terminus
T1 sequence (looked up): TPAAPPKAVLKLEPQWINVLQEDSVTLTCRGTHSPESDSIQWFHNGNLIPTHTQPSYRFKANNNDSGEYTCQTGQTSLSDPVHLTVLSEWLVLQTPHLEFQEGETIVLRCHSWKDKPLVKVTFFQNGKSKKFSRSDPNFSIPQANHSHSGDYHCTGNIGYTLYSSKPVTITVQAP


Assays:
[1] = target: T2, FcγRIIIa extracellular domain with C-terminal His tag (human, UniProt P08637 17-208); experiment: SPR; He/Con_3a divided by He/Con_2b (FcγRIIIa over FcγRIIb)
T2 construct: extracellular domain; also called FcgRIIIa; 3a; not shown: His tag at the C terminus
T2 sequence (P08637 17-208): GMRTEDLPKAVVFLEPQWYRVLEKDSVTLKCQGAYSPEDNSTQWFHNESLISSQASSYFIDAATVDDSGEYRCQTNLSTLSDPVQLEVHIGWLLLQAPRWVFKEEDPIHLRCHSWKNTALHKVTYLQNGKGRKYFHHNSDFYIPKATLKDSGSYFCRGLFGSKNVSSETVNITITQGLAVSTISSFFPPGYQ
Protocol: (§1) Analysis of interaction between objective antibody and the FcγR was carried out using Biacore T100 (GE Healthcare). HBS-EP+ (GE Healthcare) was used as the running buffer, and the measurement temperature was set to 25° C. Chips produced by immobilizing the antigen peptide by the amine coupling method to a Series S Sencor Chip CM5 (GE Healthcare), or alternatively, chips produced by allowing preliminarily biotinylated antigen peptides to interact with and immobilize onto a Series S Sensor Chip SA (certified) (GE Healthcare) were used. Antibodies of interest were captured onto an antigen peptide-immobilized chip, and allowed to interact to each FcγR diluted with running buffer. To regenerate and repeatedly use the chip, the antibodies captured on the chip were washed off by reacting 10 mM glycine-HCl, pH 1.5.
(§2) The FcγR-binding activity of each antibody was assessed primarily using as an indicator the FcγR-binding activity and dissociation constant for FcγR.

[2] = target: T1, FcγRIIb extracellular domain with …; experiment: SPR (Biacore), antibody captured on antigen peptide chip, FcγR as analyte
Protocol: as §1, §2

[3] = target: T2, FcγRIIIa extracellular domain with …; experiment: as above
Protocol: as §1, §2

| Binder | He_3a/2b (IIIa/IIb) [1] [ratio] | He/Con_2b [2] | He/Con_3a [3] |
| --- | --- | --- | --- |
| GpH7-A5/GpH7-B3 variant L328_19Q/GpL16-k0 (antibody, human IgG1, kappa, Heterodimerized anti-glypican-3 IgG1; L328Q (EU) only in the GpH7-B3 chain; also called He Ab) heavy 1: not shown heavy 2: not shown light: DIVMTQSPLSLPVTPGEPASISCQASESLVHSNRNTYLHWYLQKPGQSPQLLIYKVSNRFSGVPDRFSGSGSGTDFTLKISRVEAEDVGVYYCSQNTHVPPTFGQGTKVEIERTVAAPSVFIFPPSDEQLKSGTASVVCLLNNFYPREAKVQWKVDNALQSGNSQESVTEQDSKDSTYSLSSTLTLSKADYEKHKVYACEVTHQGLSSPVTKSFNRGEC | 0.77 | 105 relative binding (GpH7-A5/GpH7-B3/GpL16-k0 = 100) | 81.1 relative binding (GpH7-A5/GpH7-B3/GpL16-k0 = 100) |
| GpH7-A5/GpH7-B3 variant P331_20W/GpL16-k0 (antibody, human IgG1, kappa, Heterodimerized anti-glypican-3 IgG1; P331W (EU) only in the GpH7-B3 chain; also called He Ab) heavy 1: not shown heavy 2: not shown light: DIVMTQSPLSLPVTPGEPASISCQASESLVHSNRNTYLHWYLQKPGQSPQLLIYKVSNRFSGVPDRFSGSGSGTDFTLKISRVEAEDVGVYYCSQNTHVPPTFGQGTKVEIERTVAAPSVFIFPPSDEQLKSGTASVVCLLNNFYPREAKVQWKVDNALQSGNSQESVTEQDSKDSTYSLSSTLTLSKADYEKHKVYACEVTHQGLSSPVTKSFNRGEC | 0.71 | 111 relative binding (GpH7-A5/GpH7-B3/GpL16-k0 = 100) | 78.6 relative binding (GpH7-A5/GpH7-B3/GpL16-k0 = 100) |
| GpH7-A5/GpH7-B3 variant P331_04F/GpL16-k0 (antibody, human IgG1, kappa, Heterodimerized anti-glypican-3 IgG1; P331F (EU) only in the GpH7-B3 chain; also called He Ab) heavy 1: not shown heavy 2: not shown light: DIVMTQSPLSLPVTPGEPASISCQASESLVHSNRNTYLHWYLQKPGQSPQLLIYKVSNRFSGVPDRFSGSGSGTDFTLKISRVEAEDVGVYYCSQNTHVPPTFGQGTKVEIERTVAAPSVFIFPPSDEQLKSGTASVVCLLNNFYPREAKVQWKVDNALQSGNSQESVTEQDSKDSTYSLSSTLTLSKADYEKHKVYACEVTHQGLSSPVTKSFNRGEC | 0.7 | 110 relative binding (GpH7-A5/GpH7-B3/GpL16-k0 = 100) | 77.3 relative binding (GpH7-A5/GpH7-B3/GpL16-k0 = 100) |
| GpH7-A5/GpH7-B3 variant P329_20W/GpL16-k0 (antibody, human IgG1, kappa, Heterodimerized anti-glypican-3 IgG1; P329W (EU) only in the GpH7-B3 chain; also called He Ab) heavy 1: not shown heavy 2: not shown light: DIVMTQSPLSLPVTPGEPASISCQASESLVHSNRNTYLHWYLQKPGQSPQLLIYKVSNRFSGVPDRFSGSGSGTDFTLKISRVEAEDVGVYYCSQNTHVPPTFGQGTKVEIERTVAAPSVFIFPPSDEQLKSGTASVVCLLNNFYPREAKVQWKVDNALQSGNSQESVTEQDSKDSTYSLSSTLTLSKADYEKHKVYACEVTHQGLSSPVTKSFNRGEC | 0.7 | 45.1 relative binding (GpH7-A5/GpH7-B3/GpL16-k0 = 100) | 31.7 relative binding (GpH7-A5/GpH7-B3/GpL16-k0 = 100) |
| GpH7-A5/GpH7-B3 variant P331_14T/GpL16-k0 (antibody, human IgG1, kappa, Heterodimerized anti-glypican-3 IgG1; P331T (EU) only in the GpH7-B3 chain; also called He Ab) heavy 1: not shown heavy 2: not shown light: DIVMTQSPLSLPVTPGEPASISCQASESLVHSNRNTYLHWYLQKPGQSPQLLIYKVSNRFSGVPDRFSGSGSGTDFTLKISRVEAEDVGVYYCSQNTHVPPTFGQGTKVEIERTVAAPSVFIFPPSDEQLKSGTASVVCLLNNFYPREAKVQWKVDNALQSGNSQESVTEQDSKDSTYSLSSTLTLSKADYEKHKVYACEVTHQGLSSPVTKSFNRGEC | 0.74 | 99.8 relative binding (GpH7-A5/GpH7-B3/GpL16-k0 = 100) | 74.1 relative binding (GpH7-A5/GpH7-B3/GpL16-k0 = 100) |
| GpH7-A5/GpH7-B3 variant L328_16H/GpL16-k0 (antibody, human IgG1, kappa, Heterodimerized anti-glypican-3 IgG1; L328H (EU) only in the GpH7-B3 chain; also called He Ab) heavy 1: not shown heavy 2: not shown light: DIVMTQSPLSLPVTPGEPASISCQASESLVHSNRNTYLHWYLQKPGQSPQLLIYKVSNRFSGVPDRFSGSGSGTDFTLKISRVEAEDVGVYYCSQNTHVPPTFGQGTKVEIERTVAAPSVFIFPPSDEQLKSGTASVVCLLNNFYPREAKVQWKVDNALQSGNSQESVTEQDSKDSTYSLSSTLTLSKADYEKHKVYACEVTHQGLSSPVTKSFNRGEC | 0.67 | 80.6 relative binding (GpH7-A5/GpH7-B3/GpL16-k0 = 100) | 54.3 relative binding (GpH7-A5/GpH7-B3/GpL16-k0 = 100) |
| GpH7-A5/GpH7-B3 variant L328_18N/GpL16-k0 (antibody, human IgG1, kappa, Heterodimerized anti-glypican-3 IgG1; L328N (EU) only in the GpH7-B3 chain; also called He Ab) heavy 1: not shown heavy 2: not shown light: DIVMTQSPLSLPVTPGEPASISCQASESLVHSNRNTYLHWYLQKPGQSPQLLIYKVSNRFSGVPDRFSGSGSGTDFTLKISRVEAEDVGVYYCSQNTHVPPTFGQGTKVEIERTVAAPSVFIFPPSDEQLKSGTASVVCLLNNFYPREAKVQWKVDNALQSGNSQESVTEQDSKDSTYSLSSTLTLSKADYEKHKVYACEVTHQGLSSPVTKSFNRGEC | 0.61 | 80.8 relative binding (GpH7-A5/GpH7-B3/GpL16-k0 = 100) | 49.7 relative binding (GpH7-A5/GpH7-B3/GpL16-k0 = 100) |
| GpH7-A5/GpH7-B3 variant P331_15Y/GpL16-k0 (antibody, human IgG1, kappa, Heterodimerized anti-glypican-3 IgG1; P331Y (EU) only in the GpH7-B3 chain; also called He Ab) heavy 1: not shown heavy 2: not shown light: DIVMTQSPLSLPVTPGEPASISCQASESLVHSNRNTYLHWYLQKPGQSPQLLIYKVSNRFSGVPDRFSGSGSGTDFTLKISRVEAEDVGVYYCSQNTHVPPTFGQGTKVEIERTVAAPSVFIFPPSDEQLKSGTASVVCLLNNFYPREAKVQWKVDNALQSGNSQESVTEQDSKDSTYSLSSTLTLSKADYEKHKVYACEVTHQGLSSPVTKSFNRGEC | 0.72 | 114 relative binding (GpH7-A5/GpH7-B3/GpL16-k0 = 100) | 81.9 relative binding (GpH7-A5/GpH7-B3/GpL16-k0 = 100) |
| GpH7-A5/GpH7-B3 variant L328_13S/GpL16-k0 (antibody, human IgG1, kappa, Heterodimerized anti-glypican-3 IgG1; L328S (EU) only in the GpH7-B3 chain; also called He Ab) heavy 1: not shown heavy 2: not shown light: DIVMTQSPLSLPVTPGEPASISCQASESLVHSNRNTYLHWYLQKPGQSPQLLIYKVSNRFSGVPDRFSGSGSGTDFTLKISRVEAEDVGVYYCSQNTHVPPTFGQGTKVEIERTVAAPSVFIFPPSDEQLKSGTASVVCLLNNFYPREAKVQWKVDNALQSGNSQESVTEQDSKDSTYSLSSTLTLSKADYEKHKVYACEVTHQGLSSPVTKSFNRGEC | 0.48 | 149 relative binding (GpH7-A5/GpH7-B3/GpL16-k0 = 100) | 71.7 relative binding (GpH7-A5/GpH7-B3/GpL16-k0 = 100) |
